Test results from the supplement of paper PMC9170038.

System: K4 kissing-loop RNA reporter
Experiment: apparent KD of K4 kissing-loop reporter; higher = weaker reporter binding
Conditions: Eterna round: R107
Protocol: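 RNA-MaP round R107: designed RNA switches with theophylline, tryptophan, arginine or FMN aptamers are transcribed on-chip within common flanks. They are titrated with a labelled K4 kissing-loop RNA reporter in RNA-MaP buffer (100 mM Tris pH 7.5, 80 mM KCl, 4 mM MgCl2), without ligand or with the indicated ligand. Median apparent KD per design.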

[1] = input ligand: theophylline 20 uM
[2] = input ligand: tryptophan 2.4 mM
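Also: bound reporter read as fluorescence of individual clusters on recovered sequencing chips by microscopy, with normalized cluster intensities fitted with a binding model.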

Sequence | apparent KD of K4 kissing-loop reporter (input ligand: FMN 200 uM) [nM] | apparent KD of K4 kissing-loop reporter (input ligand: arginine 13.2 mM) [nM] | apparent KD of K4 kissing-loop reporter (input ligand: none) [nM] | apparent KD of K4 kissing-loop reporter [1] [nM] | apparent KD of K4 kissing-loop reporter [2] [nM]
AGGUGCUACGGAAGGAGCGCACCAGUGAUGUUGGUGUGUGACCGUGACAUGGCAGUCAAGGUGCAGGUAGGUCGCCGUGGCCUUU [Geeseris] | 137 | 108 | 131 | 138 | 136
AGGUGGGACGUAGGAUAUCCCUAAUGAUUUACUUCCUGGUUGCUACGCUUCCAGUGAUGUUGGAAGGGAGAAGGACGGGCGAGUU [Riatbive] | 365 | 217 | 213 | 217 | 222
AGGUUUUGAUUAGGAUAUGCACUGACGACGAGAAUAUAGUGAUGUUAUAUAAUACGAAUUAGUAGAGUAGAAGGGAUUGAGGUUU [SSFMNB.X] | 422 | 307 | 348 | 390 | 286
AGGUUUUGCGGAGGAUAUGCACUGAGGAGGAGAAUAUAGUGAUGUUAUAUAAGAGGAAGGAGAAGAGUAGAAGGCCGUGAGGUUU [SSFMNB.N] | 144 | 109 | 115 | 124 | 82.1
AGUACGGUGCCGUUCAGAUCAACGUAUGAUACCAGCUCGUAUAUUAGCCCUUGGCAGCAUCCGAGUGAUGUUCGGAUUGUGCCAC [theeternabot_exclusion_KL_Theo_A_45] | 113 | 98 | 102 | 93.5 | 102
AGUAGAGCAUCAGAUACCAGACAGAACUGAUGGUAAGGAGUGAUGUUCCUUAAUCAGCUUGUCCCUUGGCAGCUGAUAAUAGUCA [#13 K4 Theophylline B Same State] | 423 | 437 | 475 | 359 | 438
AGUCCACUCUAAAGAGUGGACCUAAGGGAUACCAGUGAUGUUGGUCACCCUUGGCAGCCCUCUGUCAUCGAUAAAGAUGGCAGUA | 119 | 101 | 118 | 130 | 131
AGUCUGUAUGACAUAAGUGAUGUUUAUGUUCGAGGACCGGUACGGCCGCCACUCGCAAAUGUAUGAUUUCACGUUUGUGCAAGUA [KL-XTryp-A #analogue] | 196 | 183 | 207 | 220 | 292
AGUGACGUCGCGGCCGCCACUGAAAUGACAGUGAUGUUGUCAAAAGAAAGUGAUGUUAAGAAAUGCAGGACCGGGUGAUAGAAAA [semi-accidental] | 223 | 144 | 158 | 143 | 125
AGUGAUGUAUGGCGGUGUGUCGCUUAAAAUCAGGAUAUAUAAACAAAUAGAAGGGAUGGCGGAGUGAUGUUCCGCCGGCCGCCAU [FMN A Exl V2] | 127 | 118 | 134 | 136 | 128
AGUGAUGUGGGAAGGAGCGCUACAUCACUUCAGUGAUGUUGAAGUGAUGAAUUAGUGAUGUAGCAGGUAGGUCGCCUAGAUGUUA [KL-XARG-B12] | 76.3 | 38.5 | 58.3 | 60.8 | 51.3
AGUGAUGUGGGAAGGAGCGCUAUAAGACUUCAGUGAUGUUGAAGUGCUGGUUUAGUGUUGUAGCAGGUAGGUCGCCUAGAUGUUA [KL-XARG-B11] | 293 | 239 | 275 | 196 | 218
AGUGAUGUGGGAAGGAGCGGUAUAUGAGUUCAGUGAUGUUGAAGUGAUGCUGUAGUGAUGUGCCAGGUAGGUCGCCUAGAUGUUA [whbob_Ex_Arginine_B_2th165] | 374 | 217 | 395 | 194 | 290
AGUGAUGUUGUGUUAUCUUAGUGAAGUGAUCGAGGACCGGUACGGCCGCCACUCGAGUGAUGAGUGAGUGAUGUUUGUUUAGGGA [vvbmullin] | 818 | 673 | 1080 | 931 | 561
AGUGAUGUUGUGUUAUGCAAGGGAAGUGAUCGAGGACCGGUACGGCCGCCACUCGAGUGAUGAGUGAGUGAUGUUUGUUUAGGGA [ffgmullin] | 1180 | 451 | 933 | 883 | 401
AGUGAUGUUGUGUUAUGUUUGGGAAGUGAUCGAGGACCGGUACGGCCGCCACUCGAGUGAUGAGUGAGUGAUGUUUGUUUAGGGA [whbob_SS_Tryp_A_m9] | 1060 | 698 | 962 | 1120 | 498

Sequence | apparent KD of K4 kissing-loop reporter (input ligand: FMN 200 uM) [nM] | apparent KD of K4 kissing-loop reporter (input ligand: arginine 13.2 mM) [nM] | apparent KD of K4 kissing-loop reporter (input ligand: none) [nM] | apparent KD of K4 kissing-loop reporter [1] [nM] | apparent KD of K4 kissing-loop reporter [2] [nM]
AGUGGACGUGUUCGGAGUGAUGUUCCGGAUACCAGACACGAAAGUGUCCCUUGGCAGCCGGAGUGAUGUUCCGGCGUUCACUAAA [Omei KL Theo A Exc B v2] | 646 | 311 | 538 | 533 | 439
AGUGUACAGUCGGCCGCCACUCACUCCUCCUGCGUUAACGAGUGAUGUUUGUUUUUUAGUGGUACGAGGACCGGGACUUCUCUGA [theeternabot_sameState_KL_Trp_B_35] | 237 | 118 | 275 | 245 | 260
AGUUCAGAGUGACUCGAUAAGAGUCACAAACGAGGACCGGUACGGCCGCCACUCGAAAUAACGAGAGUGAUGUUCUCGCUGGGCA [FiskerMod 2 - Jieux - Same State Tryptophan A] | 726 | 674 | 862 | 824 | 244
AGUUUAGAGUGACUCGAUAAGAGUCACAAACGAGGACCGGUACGGCCGCCACUCGAAAUAACGAGAGUGAUGUUCUCGCUGGGCA [FiskerMod 3 - Jieux - Same State Tryptophan A] | 332 | 377 | 458 | 384 | 126
AUAAACUUGCAGUGAUGUUGCAAGUAAGACUAGGAUAUCAGGAAACUGAGAAGGAGUCAUCUCCUUCACUUGCAACUAGGAGGAG [[K1]-[K2]-[F1]-[F2]-[F]'-[K]'-[F]''_Design6] | 122 | 93.4 | 143 | 144 | 133
AUAAUAAAGACGGCCGCCACUGAGAGUAGUGAUGUUACUCUUUUCCUUUAGAAAUAAUAUUUUAUCAGGACCGGGUUUUUUGAAU [JR_Nu_ExcTryptoB_Sub026] | 95.3 | 81.1 | 84.8 | 79.6 | 92
AUAAUUAUAUAGAAAUAUAUAAUUAUAUAACGAGGACCGGUACGGCCGCCACUCGUGCCGGGCAUAAAAUGAGUGAUGUUCAUGU [KL-XTryp-A7 #analogue] | 205 | 228 | 212 | 193 | 198
AUACGUUUCAGAGGAUAUCGGAGGAGAGUGAUGUUCUCCCAUAGCCCAGUGAUGUUGGAAGCUAUCCGAGAAGGCUGUGGGCGUA [Same State FMN B GF 15] | 145 | 174 | 186 | 179 | 179
AUCGUUGUCUGAGGAUAUCGGUUAUCUGUAGUGAUGUUACAGUAUAUUCAUAUUAUACUUUCUAUUCGAGAAGGCAGACUACGUA [JR_Nu_ExcFMNB_Sub020] | 169 | 80.5 | 82.5 | 74.8 | 82.9
AUCGUUGUCUGAGGAUAUCGUUUUACUGUAGUGAUGUUACAGAAAAUUCACAUUAUAAUUUCUAUUCGAGAAGGCAGACUACGUA [JR_ExcFMNB_Sub015] | 134 | 112 | 120 | 114 | 120
AUCUAUGAGCGAGGAUAUGCAUAACGCGAGUGAUGUUCGCGAUGUGGGCGUAAUUGAUAAAAUGAAGCAGAAGGCGCACUCAUGA [Exclusion - FMW B / B] | 165 | 115 | 177 | 155 | 120
AUGCCUAUGACGGCCGCCACUGAGAGUCAGUGAUGUUGACUCGAUACAGCUGAUUAGCAGCUAAUCAGGACCGGGUCAUACACAU [Tryp B SS t3] | 243 | 158 | 244 | 245 | 123
AUGCGUGAUGCUCAAAGAGUAUCACCCGAUACCAGUAUGGAAACAUACCCUUGGCAGCGGGUAACUGCCCAGUGAUGUUGGACGC [Theophylline A K4 10] | 286 | 160 | 242 | 288 | 234
AUGCUGUCGGCGUUAAAGUAGUAAUGUGAUACCAGAAAUGCUGUGUUCCCUUGGCAGCACAUUCUUACAGACAGUGAUGUUGUCU [theeternabot_exclusion_KL_Theo_A_8] | 414 | 315 | 391 | 390 | 336
AUGGUUGUCGUAGGAUAUGUAGGAUAUUCUAAAAUAUGAAGUGAUGUUUCUAUAAUAAGAAGAAGGACAGAAGGACGAUAACCAC [FmnBS 1 - SaraBot transfer #DoubleAptamer] | 90.4 | 104 | 114 | 89.3 | 108
AUGUACAUUCUCAGUGAUGUUGGGUUGUAACGAGGACCGGUACGGCCGCCACUCGGGAUGUGGUAUAUAGAUGUAUGUGUAGCAU [skye_SS_TA] | 612 | 271 | 446 | 512 | 439
